Test results: article PMC6411343 (International Journal of Oncology, 2019)

B1: [^125I]I-HPEM-G3-GGGC (DARPin G3-GGGC, site-specifically labelled with [^125I]I-iodo-[(4-hydroxyphenyl)ethyl]maleimide) (designed binder)
chain: DLGKKLLEAARAGQDDEVRILMANGADVNAKDEYGLTPLYLATAHGHLEIVEVLLKNGADVNAVDAIGFTPLHLAAFIGHLEIAEVLLKHGADVNAQDKFGKTAFDISIGNGNEDLAEILQKLNGGGGC
modifications: [^125I]I-HPEM ([^125I]iodo-[(4-hydroxyphenyl)ethyl]maleimide) on the C-terminal cysteine (maleimide-cysteine coupling)
B2: [^125I]I-G3-GGGC-IAA (DARPin G3-GGGC, directly radioiodinated, terminal cysteine capped with iodoacetamide) (designed binder)
chain: B1 chain
modifications: iodine-125 by direct iodination; terminal cysteine capped by alkylation with iodoacetamide (IAA)
B3: [^125I]I-G3-H6 (DARPin G3-H6, directly radioiodinated with iodine-125) (designed binder)
chain: MDLGKKLLEAARAGQDDEVRILMANGADVNAKDEYGLTPLYLATAHGHLEIVEVLLKNGADVNAVDAIGFTPLHLAAFIGHLEIAEVLLKHGADVNAQDKFGKTAFDISIGNGNEDLAEILQKLNGS
modifications: iodine-125 on tyrosines (direct chloramine-T radioiodination, random attachment; number and position not controlled)

Target: human epidermal growth factor receptor 2 (HER2) (human (endogenous in SKOV3, BT474, …, UniProt P04626 23-1255))
Assay: radioligand binding

Binder	KD1 (high affinity interaction, 1:2 interaction model)	KD2 (low affinity interaction, 1:2 interaction model)
B1	99 pM	3.5 nM
B2	146 pM	1.5 nM
B3	163 pM	3.9 nM
